Consider 3 molecules from patent US8394929B2, “Nogo receptor-mediated blockade of axonal growth” (Yale University, priority 2000, dated 2013).

Entries after “also recorded” stand apart in the source; their conditions may differ.

The assay deals with chick E12 dorsal root ganglion neurons. Description: AP-Nogo binding to chick dorsal root ganglion neurons. The text has this:
(a) is a photograph of a gel and an immunoblot where the His-AP-Nogo (66 amino acid) protein was expressed in HEK293T cells, and purified from conditioned medium on a Nickel-containing resin via the His tag. Purified protein was subjected to SDS-PAGE and stained for total protein with CBB or immunoblotted with anti-Nogo antibodies (anti-Nogo). Molecular weight markers of 200, 116, 97, 65 and 45 kDa are shown at left, and the migration of AP-Nogo at right. (b) is a photograph of dissociated chick E12 dorsal root ganglion neurons that were incubated with 10 nM AP-Nogo or 10 nM AP-Nogo+160 nM GST-Nogo for sixty minutes at 23° C. The cells were washed, fixed and incubated at 60° C. in order to inactivate endogenous AP. Bound AP-Nogo was detected by incubation with nitro blue tetrazolium. Note the intense neuronal staining by AP-Nogo that is displaced by unlabeled ligand. (c) is a graph displaying experimental data where the potency of AP-Nogo and GST-Nogo in E12 chick dorsal root ganglion growth cone collapse assays was assessed as described in the Example section. The EC50 of AP-Nogo was determined to be 1 nM or less. The means±s.e.m. calculated from five to eight determinations are illustrated. (d) is a graph displaying experimental data where the binding of 10 nM AP-Nogo to chick E12 dorsal root ganglion neurons was assessed alone, or in the presence of 100 nM GST-Nogo or in the presence of 4 μM Pep2, which was quantified from experiments as in (b) by the method described in the Example section. The means±s.e.m. calculated from eight determinations are shown. (e) is a graph displaying experimental data where AP-Nogo binding to dorsal root ganglion neurons was measured as a function of AP-Nogo concentration. This is one of six experiments with similar results. (f) is a graph summarizing the data from (e) replotted for Scatchard analysis. The apparent Kd for AP-Nogo binding to E12 chick dorsal root ganglion neurons is 3 nM. […]

Take “Pep2-41: 2-41 fragment of the 66 amino acid region of Nogo, acetylated and amidated at the termini (Ac-RIYKGVIQAIQKSDEGHPFRAYLESEVAISEELVQKYSNS-NH2)”: the Ki (binding of 10 nM AP-Nogo, read-out: apparent Ki in the binding assay) was 150 nM.

B1: GST-Nogo: GST fusion protein of the 66 amino acid lumenal-extracellular fragment of Nogo-A, expressed in E. coli (protein)
chain: RIYKGVIQAIQKSDEGHPFRAYLESEVAISEELVQKYSNSALGHVNCTIKELRRLFLVDDLVDSLK
modifications: also: GST fusion protein
notes: GST fusion protein of the 66 amino acid lumenal-extracellular fragment of Nogo-A, expressed in E. coli
Take B1: the “blockade of AP-Nogo binding (in words)” value is recorded as “blocked; also recorded: displaced”.

B2: NgR-ecto: secreted fragment of amino acid residues 1-348 of the murine NgR, in HEK293T conditioned medium (protein)
chain: CPGACVCYNEPKVTTSCPQQGLQAVPTGIPASSQRIFLHGNRISHVPAASFQSCRNLTILWLHSNALARIDAAAFTGLTLLEQLDLSDNAQLHVVDPTTFHGLGHLHTLHLDRCGLRELGPGLFRGLAALQYLYLQDNNLQALPDNTFRDLGNLTHLFLHGNRIPSVPEHAFRGLHSLDRLLLHQNHVARVHPHAFRDLGRLMTLYLFANNLSMLPAEVLMPLRSLQYLRLNDNPWVCDCRARPLWAWLQKFRGSSSEVPCNLPQRLADRDLKRLAASDLEGCAVASGPFRPIQTSQLTDEELLSLPKCCQPDAADKASVLE
modifications: left off: small tags and cut ends
notes: secreted fragment of amino acid residues 1-348 of the murine NgR, in HEK293T conditioned medium
In the case of B2, the “reduction of binding of AP-Nogo-66” value (0.5 nM AP-Nogo-66, NgR-ecto conditioned medium, dorsal root ganglion neurons) came to 80%.
